Measured values taken from patent US20250011734A1, “DGAT1/2-INDEPENDENT ENZYME SYNTHESIZING STORAGE LIPIDS (DIESL)” (STICHTING HET NEDERLANDS KANKER INSTITUUT-ANTONI VAN …, priority 2021, published 2025).

Key:
[1] = tested on: HAP1 4KO cells (ΔDGAT1ΔDGAT2ΔDIESLΔTMX1); experiment: Shotgun lipidomics of HAP1 4KO cells reconstituted with WT or H130A DIESL; assay type: cell-based, human; conditions: HAP1 4KO cells expressing active (WT) or catalytic-inactive (H130A) DIESL; FIG. 4B
Procedure: HAP1 4KO (ΔDGAT1ΔDGAT2ΔDIESLΔTMX1) cells, reconstituted with WT or H130A DIESL, were cultured in complete medium. Prior to collection, cells were cultured in serum-free IMDM for thirty minutes. Cells were then collected by trypsinization, washed twice with PBS and three million cells (in triplicate) were pelleted and stored at −80° C. For E. coli samples, 2 ml of induced culture (as described above, in triplicate) was pelleted and incubated overnight at −80° C. The following day, bacterial pellets were thawed and incubated in 25 μg/ml lysozyme in PBS for 30 minutes. Cells were pelleted, washed in PBS, and then pelleted again before resuspension in distilled water. Cells were sonicated at 60% amplitude for 5 minutes, in continuous 5-second on/25-second off cycles. The insoluble fraction was pelleted by centrifugation and the lysate (supernatant) was quantified for protein and stored at −80° C. […]
Samples were analyzed by direct infusion on a QExactive mass spectrometer (Thermo Scientific) equipped with a TriVersa NanoMate ion source (Advion Biosciences). Samples were analyzed in both positive and negative ion modes with a resolution of Rm/z=200=280000 for MS and Rm/z=200=17500 for MSMS experiments, in a single acquisition. […]
Data were analyzed by Lipotype GmbH with in-house developed lipid identification software based on LipidXplorer (41, 42). […]

E. coli = experiment: Recombinant expression of DIESL in E. coli, TAG by TLC and mass spectrometry; assay type: cell-based; conditions: human DIESL preceded by a bacterial membrane targeting sequence, FIG. 4F
Procedure: E. coli BL21 were transformed with pET24 or pET28a plasmids expressing the indicated construct. Single clones were cultured up to a 5 ml volume in LB broth at OD 0.5 at 37° C. Cultures were then transferred to 25° C. for one hour, and then expression was induced with 0.2 mM IPTG for 16h. For SDS-PAGE and immunoblot analysis, 100 ul of culture was pelleted for 5 minutes at 3,500 g before lysis in SDS-PAGE sample buffer.
Equivalent numbers of human cells grown to confluence in 6-well plates were first washed with PBS. Cells were then incubated twice in 400 μl extraction buffer (3:2 hexane:isopropanol) for 10 minutes (35). E. coli cell pellets from 2 ml of overnight culture were incubated in 500 μl extraction buffer (only once) for 30 minutes while rotating. Extractions were pooled and dried under nitrogen stream, to a volume of ˜10 μl, and then spotted on silica gel 60 TLC plates (Sigma-Aldrich). Plates were placed in a TLC tank containing a mobile phase to separate neutral lipids (80:20:1 hexane:diethyl ether:acetic acid) or polar lipids (60:50:4:1 chloroform:methanol:water:acetic acid). […] After drying, NBD fluorescence was monitored on a Universal Hood GelDoc system (Bio-Rad) using the fluorescein channel. […] (shaking at 850 rpm) for the indicated time (final [14C] DAG concentration, 50 μM; total radioactivity per assay, 0.14 μCi). […]

B1: active DIESL: DIESL polypeptide (human transmembrane protein 68, SEQ ID NO: 1) with triacylglycerol synthase activity (protein, listed as Homo sapiens)
chain: MIDKNQTCGVGQDSVPYMICLIHILEEWFGVEQLEDYLNFANYLLWVFTPLILLILPYFTIFLLYLTIIFLHIYKRKNVLKEAYSHNLWDGARKTVATLWDGHAAVWHGYEVHGMEKIPEDGPALIIFYHGAIPIDFYYFMAKIFIHKGRTCRVVADHFVFKIPGFSLLLDVFCALHGPREKCVEILRSGHLLAISPGGVREALISDETYNIVWGHRRGFAQVAIDAKVPIIPMFTQNIREGFRSLGGTRLFRWLYEKFRYPFAPMYGGFPVKLRTYLGDPIPYDPQITAEELAEKTKNAVQALIDKHQRIPGNIMSALLERFH
- TAG abundance as share of the lipidome [1]: 20.5 % of the lipidome
- TAG synthesis in E. coli (E. coli): induced de novo TAG synthesis
